The results in this text go back to patent publication US20260028608A1.

Assay [1] addresses Human IgG (fixed concentration, MSD potency assay of Example 4). Kind of assay: cell-based or functional assay.
Assay [2] has as its target IgG in human serum pool from 100 individuals. Kind of assay: cell-based or functional assay.

B1: N240, a variant IdeZ polypeptide of the invention (enzyme)
chain: MDDYQRNATEAYAKEVPHQITSVWTKGVTPPEQFTQGEDVIHAPYLAHQGWYDITKAFNGKDDLLCGAATAGNMLHWWFDQNKTEIEAYLSKHPEKQKIIFRNQELFDLKAAIDTKDSQTNSQLFNYFRDKAFPNLSARQLGVMPDLVLDMFINGYYLNVFKTQSTDVNRPYQDKDKRGGIFDAVFTRGNQTTLLTARHDLKNKGLNDISTIIKQELTEGRALALSHTYANVSISHVINLWGADFNAEGNLEAIYVTDSDANASIGMKKYFVGINAHGHVAISAKKIEGENIGAQVLGLFTLSSGKDIWQKLS
B1 came in with a mean relative potency (EC50Ref/EC50Test x 100%), MSD potency assay of IgG cleavage in assay [1] of 300%. Besides, in assay [2], the Relative Potency (%) In Serum, Plate 1 (MSD, from EC50; reference IdeS) came to 151%; the Relative Potency (%) In Serum, Plate 1 (MSD, from EC50; reference IdeS; separate dilutions) was 137%; the Relative Potency (%) In Serum, Plate 2 (MSD, from EC50; reference IdeS) is 132%; the Relative Potency (%) In Serum, Plate 2 (MSD, from EC50; reference IdeS; separate dilutions) came to 146%. In assay [2], this molecule gave a Relative Potency (%) In serum, Mean value (MSD, from EC50; reference IdeS) of 142% and a Relative Potency (%) In serum, Mean value (MSD, from EC50; reference IdeS; separate dilutions) of 142%.

B2: pCART239, a variant IdeZ polypeptide of the invention (enzyme)
chain: MDDYQRNATEAYAKEVPHQITSVWTKGVTPPEQFTQGEDVIHAPYLAHQGWYDITKAFNGKDDLLCGAATAGNMLHWWFDQNKTEIEAYLSKHPEKQKIIFRNQELFDLKAAIDTKDSQTNSQLFNYFRDKAFPNLSARQLGVMPDLVLDMFINGYYLNVFKTQSTDVNRPYQDKDKRGGIFDAVFTRGNQTTLLTARHDLKNKGLNDISTIIKQELTEGRALALSHTYANVSISHVINLWGADFNAEGNLEAIYVTDSDANASIGMKKYFVGINAHGHVAISAKKIEGENIGAQVLGLFTLSSGKDIWQKLSGGGHHHHHH
In assay [2], B2 showed an enzyme concentration at which all IgG were converted to scIgG, serum pool with 0.1 mg/ml pCART243 (SDS-PAGE) of 0.5 µg/ml.
